The source of these data is PMC5093550.

Assay [1] has as its target α-synuclein fibrils. Kind of assay: microfluidic diffusional sizing; monomeric Alexa-568-β-synuclein incubated (15 min) with unlabelled α-synuclein fibrils at [α-synuclein fibrils]:[β-synuclein monomer] (M:M) of 5 and 40; conditions of the seeded kinetic experiments (pH 6.5); degree of binding estimated from the effective hydrodynamic radius.
For assay [2], the target named is α-synuclein fibrils. Kind of assay: fluorescence spectroscopy of the fibrils formed; seeded fibrils formed with unlabelled monomeric α-synuclein and monomeric Alexa-568-β-synuclein, compared with fibrils formed with Alexa-568-α-synuclein; pH 6.5.

Some results are limits rather than exact numbers.

Consider “Alexa-568-β-synuclein, monomeric (from UniProt Q16143 1-134) (natural protein)”, for which, in the assay with α-synuclein fibrils [1], the degree of binding at [α-synuclein fibrils]:[β-synuclein monomer] ratio 5 is < 5% and the degree of binding at [α-synuclein fibrils]:[β-synuclein monomer] ratio 40 was 10%. Also, in the assay with α-synuclein fibrils [2], the degree of incorporation into the fibrils was < 3%.
